{"source": "paper PMC11678932", "about": "“A Signal-On Microelectrode Electrochemical Aptamer Sensor Based on AuNPs–MXene for Alpha-Fetoprotein Determination”", "binders": {"B1": {"name": "AFP aptamer (ssDNA)", "DNA": "GTGACGCTCCTAACGCTGACTCAGGTGCAGTTCTCGACTCGGTCTTGATGTGGGTCCTGTCCGTCCGAACCAATC", "modifications": "5'-SH; 3'-methylene blue"}}, "molecular_target": "T1, alpha-fetoprotein (AFP) (UniProt P02771 19-609)", "T1 sequence": "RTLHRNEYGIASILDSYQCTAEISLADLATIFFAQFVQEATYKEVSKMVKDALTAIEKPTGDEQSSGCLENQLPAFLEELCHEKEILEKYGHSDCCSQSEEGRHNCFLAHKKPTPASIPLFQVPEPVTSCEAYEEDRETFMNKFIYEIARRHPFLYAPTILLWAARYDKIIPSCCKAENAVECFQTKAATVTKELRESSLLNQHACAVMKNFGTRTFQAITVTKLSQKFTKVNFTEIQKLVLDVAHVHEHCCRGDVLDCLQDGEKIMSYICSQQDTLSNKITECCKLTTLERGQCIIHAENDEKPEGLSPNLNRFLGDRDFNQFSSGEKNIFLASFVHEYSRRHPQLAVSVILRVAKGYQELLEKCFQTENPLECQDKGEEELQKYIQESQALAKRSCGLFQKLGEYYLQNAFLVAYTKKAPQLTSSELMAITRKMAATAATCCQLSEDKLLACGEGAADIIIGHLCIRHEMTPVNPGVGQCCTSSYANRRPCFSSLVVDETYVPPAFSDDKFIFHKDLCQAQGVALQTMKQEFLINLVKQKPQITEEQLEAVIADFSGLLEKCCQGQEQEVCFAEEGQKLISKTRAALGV", "assay": "electrochemical aptasensor (DPV); signal-on; log-linear 1-300 ng/mL, LOD 0.05 ng/mL (not a Kd); Optimized: pH 7, 4 uM aptamer, 40 min aptamer and 30 min AFP incubation; PBS (0.01 M) listed as reagent; temperature not stated for binding", "conditions": "protein: commercial; label: 3'-methylene blue"}
{"binder": "B1", "values": [{"measurement": "binding result", "value": "binds"}]}
